Values joined by “and” are separate entries in the source; they are usually repeats but may differ in a detail not shown here. Equal values may be shown once.
What was measured:
Experiment in all cases: pull-down
[1] = biological target: GST-NR1-1a (GST fused to the cytoplasmic tail of NR1-1a) (UniProt P35439)
[2] = biological target: PKA phosphorylated GST-NR1-1a
[3] = biological target: PKC-phosphorylated GST-NR1-1a

- importin α pulled down (immunoblot signal, a.u.) [1]: 0.94 a.u. and 1.43 a.u.
- importin α pulled down (immunoblot signal, a.u.) [2]: 1.33 a.u.
- importin α pulled down (immunoblot signal, a.u.) [3]: 0.378 a.u.
Substance: importin α (endogenous, rat brain) (from UniProt P83953 1-538) (natural protein)

From publication PMC2819930
